Assay results: patent publication US20240402174A1 (Takeda / Millennium, published 2024)

How the values were obtained:
Assay in all cases: multiplex microsphere immunoassay
GII.12 VLP = molecular target: T1, GII.12 VLP (norovirus Hu/GII.12 strain E5152)
T1 construct: also called Hu/GII.12 strain E5152
T1 chain: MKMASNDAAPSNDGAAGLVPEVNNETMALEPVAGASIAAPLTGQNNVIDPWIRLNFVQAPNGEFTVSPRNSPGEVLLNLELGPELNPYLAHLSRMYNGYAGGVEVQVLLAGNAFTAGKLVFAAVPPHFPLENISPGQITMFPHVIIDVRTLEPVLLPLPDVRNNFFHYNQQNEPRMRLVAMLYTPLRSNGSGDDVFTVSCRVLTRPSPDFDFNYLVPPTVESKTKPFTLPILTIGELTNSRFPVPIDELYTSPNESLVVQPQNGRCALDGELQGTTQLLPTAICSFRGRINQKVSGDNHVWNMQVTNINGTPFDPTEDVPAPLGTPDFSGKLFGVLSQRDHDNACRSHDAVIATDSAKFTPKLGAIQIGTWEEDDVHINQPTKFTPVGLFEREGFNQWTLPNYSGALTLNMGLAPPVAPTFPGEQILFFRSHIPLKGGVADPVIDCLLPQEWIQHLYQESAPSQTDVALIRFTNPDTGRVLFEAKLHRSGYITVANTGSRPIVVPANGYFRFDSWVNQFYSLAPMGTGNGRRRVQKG

GII.6 VLP = molecular target: T2, GII.6 VLP (norovirus Hu/GII.6/Ehime120246/2012/JP)
T2 construct: also called Hu/GII.6/Ehime120246/2012/JP
T2 chain: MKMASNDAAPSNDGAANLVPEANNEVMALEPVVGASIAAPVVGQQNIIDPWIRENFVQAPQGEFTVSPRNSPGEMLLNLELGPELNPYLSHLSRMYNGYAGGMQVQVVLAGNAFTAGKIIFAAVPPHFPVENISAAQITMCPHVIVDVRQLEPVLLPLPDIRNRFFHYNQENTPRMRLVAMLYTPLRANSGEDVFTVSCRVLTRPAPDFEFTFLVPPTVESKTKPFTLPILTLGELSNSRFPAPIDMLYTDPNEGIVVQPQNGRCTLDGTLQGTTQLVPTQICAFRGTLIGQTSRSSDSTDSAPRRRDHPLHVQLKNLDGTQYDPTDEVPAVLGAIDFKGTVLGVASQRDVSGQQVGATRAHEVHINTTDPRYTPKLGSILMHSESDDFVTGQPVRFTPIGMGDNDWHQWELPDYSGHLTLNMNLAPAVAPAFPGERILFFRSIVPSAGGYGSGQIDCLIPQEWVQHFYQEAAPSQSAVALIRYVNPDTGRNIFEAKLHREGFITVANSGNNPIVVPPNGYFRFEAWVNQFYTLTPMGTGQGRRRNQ

GII.2 VLP = molecular target: T3, GII.2 VLP (norovirus Hu/GII.2/OH10026/2010/JP)
T3 chain: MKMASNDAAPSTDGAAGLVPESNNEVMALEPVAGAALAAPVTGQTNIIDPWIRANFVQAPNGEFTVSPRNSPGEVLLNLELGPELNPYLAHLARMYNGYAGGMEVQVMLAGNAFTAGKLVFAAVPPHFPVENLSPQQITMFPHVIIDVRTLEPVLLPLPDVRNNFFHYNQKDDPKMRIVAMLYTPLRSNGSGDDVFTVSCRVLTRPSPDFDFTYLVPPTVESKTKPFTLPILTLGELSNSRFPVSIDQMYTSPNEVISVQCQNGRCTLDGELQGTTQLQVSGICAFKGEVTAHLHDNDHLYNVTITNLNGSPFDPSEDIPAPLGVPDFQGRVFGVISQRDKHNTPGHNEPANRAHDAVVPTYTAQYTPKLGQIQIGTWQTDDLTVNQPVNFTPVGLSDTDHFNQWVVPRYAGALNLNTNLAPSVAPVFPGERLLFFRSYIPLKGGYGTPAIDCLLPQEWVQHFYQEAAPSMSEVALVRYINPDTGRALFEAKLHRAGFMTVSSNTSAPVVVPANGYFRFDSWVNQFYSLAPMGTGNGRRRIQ

GII.4/Consensus VLP = molecular target: T4, GII.4/Consensus VLP (norovirus GII.4 consensus sequence, UniProt P54635 1-539)
T4 chain: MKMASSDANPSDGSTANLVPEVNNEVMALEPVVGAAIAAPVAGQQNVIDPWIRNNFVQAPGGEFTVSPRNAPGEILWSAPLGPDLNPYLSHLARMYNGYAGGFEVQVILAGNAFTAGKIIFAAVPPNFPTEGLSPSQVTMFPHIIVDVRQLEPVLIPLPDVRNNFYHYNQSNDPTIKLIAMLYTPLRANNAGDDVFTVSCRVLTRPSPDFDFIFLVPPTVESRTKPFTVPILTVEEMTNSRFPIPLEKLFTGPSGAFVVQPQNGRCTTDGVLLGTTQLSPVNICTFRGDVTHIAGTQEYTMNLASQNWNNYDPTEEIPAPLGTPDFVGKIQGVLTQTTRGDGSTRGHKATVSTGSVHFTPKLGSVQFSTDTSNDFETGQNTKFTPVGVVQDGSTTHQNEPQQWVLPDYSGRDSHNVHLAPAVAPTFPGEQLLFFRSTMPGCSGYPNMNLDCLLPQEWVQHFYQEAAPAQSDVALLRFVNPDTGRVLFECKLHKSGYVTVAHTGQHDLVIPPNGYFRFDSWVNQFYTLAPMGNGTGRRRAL

GII.4/Den Haag VLP = molecular target: T5, GII.4/Den Haag VLP (norovirus Hu/GII.4/DenHaag89/2006/NL, UniProt P54635 1-539)
T5 construct: also called Hu/GII.4/DenHaag89/2006/NL
T5 chain: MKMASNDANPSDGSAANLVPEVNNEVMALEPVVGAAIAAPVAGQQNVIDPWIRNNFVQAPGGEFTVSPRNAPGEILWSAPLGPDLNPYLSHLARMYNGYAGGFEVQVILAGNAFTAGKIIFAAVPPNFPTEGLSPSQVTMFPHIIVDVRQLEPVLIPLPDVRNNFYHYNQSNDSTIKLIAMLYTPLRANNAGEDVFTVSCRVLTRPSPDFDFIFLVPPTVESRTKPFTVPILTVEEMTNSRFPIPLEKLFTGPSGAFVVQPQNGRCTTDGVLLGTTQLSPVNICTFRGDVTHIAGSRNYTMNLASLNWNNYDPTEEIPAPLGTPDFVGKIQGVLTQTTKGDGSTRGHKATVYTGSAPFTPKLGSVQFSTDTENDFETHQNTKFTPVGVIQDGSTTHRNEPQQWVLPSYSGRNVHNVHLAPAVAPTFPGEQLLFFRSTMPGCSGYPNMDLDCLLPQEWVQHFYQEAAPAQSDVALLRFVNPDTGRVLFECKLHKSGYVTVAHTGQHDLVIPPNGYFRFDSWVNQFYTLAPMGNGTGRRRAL

B1: human mAb 1227 (antibody, V domains shown)
VH: QVQLVQSGGGMVQPGGSLSLSCAASGFTLSNYAMTWVRQAPGKGLEWVSSIGGSGGTTYYADSVKGRFTISRDSSMNTLYLQMSNLRAGDTAVYYCAKDKTRTLRLGYSGMDVWGQGTTVTVSS
VL: DIRLTQSPSSLSASVGDRVTITCRASQSISSYLNWYQQKPGKAPDLLIYGASSLQSGVPSRFSGSGSGTDFTLTISSLQPEDFGNYYCQQSFSTPRTFGQGTKVEL
notes: also called A1227
EC50 (GII.12 VLP): 0.026 mg/L | EC50 (GII.6 VLP): 0.071 mg/L | EC50 (GII.2 VLP): 0.105 mg/L | EC50 (GII.4/Consensus VLP): 0.216 mg/L | EC50 (GII.4/Den Haag VLP): 0.014 mg/L

B2: human mAb 1431 (antibody, V domains shown)
VH: QVQLVQSGGGLVQPGGSLRLSCAASGFAFSNHGMHWVRQAPGKGLEWLSYISGSTGAIHYANSVKGRFTISRDNARNSLDLQMNSLGDEDTAVYYCARDGPRPDGTGYAGPSNDYWGQGTLVSVSS
VL: EIVLTQSPASLSLSPGERATLSCKASRSISIYLAWYQQKPGQAPRLLIYDASYRAIGIPARFSGSGSGTDFTLTISNLEPEDFAVYYCQHRSSWPALTFGGGTKVEI
notes: also called A1431
binding result (GII.12 VLP): no binding | binding result (GII.6 VLP): no binding | binding result (GII.2 VLP): no binding | EC50 (GII.4/Consensus VLP): 0.07 mg/L | EC50 (GII.4/Den Haag VLP): 0.024 mg/L
